Results: patent publication US5990092

Target: GATA-6 (Homo sapiens) (UniProt Q92908)
Test: cell_activity
Settings: luciferase transactivation in p53-/- MEFs

Sequence of GATA-6 (Homo sapiens) (Q92908 147-595): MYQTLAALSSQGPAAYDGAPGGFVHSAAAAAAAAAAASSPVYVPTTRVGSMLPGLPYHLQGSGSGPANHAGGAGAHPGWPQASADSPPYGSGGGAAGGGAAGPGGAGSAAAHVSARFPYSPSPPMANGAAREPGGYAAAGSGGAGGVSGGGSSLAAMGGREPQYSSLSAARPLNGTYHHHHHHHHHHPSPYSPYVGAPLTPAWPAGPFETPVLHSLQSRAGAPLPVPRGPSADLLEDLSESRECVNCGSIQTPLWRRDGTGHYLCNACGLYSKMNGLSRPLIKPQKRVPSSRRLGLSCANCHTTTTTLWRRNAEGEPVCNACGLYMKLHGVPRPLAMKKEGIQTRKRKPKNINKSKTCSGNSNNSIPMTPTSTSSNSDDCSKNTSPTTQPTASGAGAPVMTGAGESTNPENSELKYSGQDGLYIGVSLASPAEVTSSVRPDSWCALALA

With p21 promoter 3.8 kbp the activity was 3.7 fold.
